Data as given in PMC4922050, “Stress-induced nuclear translocation of CDK5 suppresses neuronal death by downregulating ERK activation via VRK3 phosphorylation” (Scientific Reports, 2016).

Columns and labels:
Test in all cases: pull-down; GST-VRK3 (wild type, S108A, S108E) incubated overnight with recombinant VHR or recombinant phospho-ERK2 in Triton lysis buffer with 1 mM DTT and 10% glycerol, then glutathione-sepharose 4B beads at 4 °C for 1 h
Settings in all cases: both partners purified
[1] = target: T1, GST-tagged recombinant full-length VRK3 (vaccinia-related kinase 3), wild type (human, UniProt Q8IV63 1-474)
T1 construct: vaccinia-related kinase 3 (VRK3), human; coding region amplified by RT-PCR from mRNA of human cell lines and cloned into pGEX4T-3; full length (fragment F3 ends at amino acid 474); pGEX4T-3 vector; also called GST-VRK3; VRK3^WT; source: E. coli BL21 (DE3) pLysS, purified (glutathione-sepharose 4B)
T1 sequence (looked up): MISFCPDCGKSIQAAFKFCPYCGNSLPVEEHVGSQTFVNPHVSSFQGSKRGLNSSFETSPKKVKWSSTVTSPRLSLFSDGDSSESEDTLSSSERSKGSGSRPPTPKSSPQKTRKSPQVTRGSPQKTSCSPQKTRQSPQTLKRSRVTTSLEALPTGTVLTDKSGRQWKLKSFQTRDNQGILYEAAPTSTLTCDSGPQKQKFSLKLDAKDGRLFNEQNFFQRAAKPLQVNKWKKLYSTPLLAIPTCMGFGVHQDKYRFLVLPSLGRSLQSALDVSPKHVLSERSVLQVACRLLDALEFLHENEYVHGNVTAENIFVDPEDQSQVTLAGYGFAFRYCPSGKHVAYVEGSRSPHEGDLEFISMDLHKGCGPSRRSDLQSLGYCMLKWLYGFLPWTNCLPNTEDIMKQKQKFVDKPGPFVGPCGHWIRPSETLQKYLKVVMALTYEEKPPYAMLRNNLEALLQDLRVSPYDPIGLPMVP

GST-VRK3^S108A = target: T2, GST-VRK3^S108A (human, UniProt Q8IV63 1-474, S108A)
T2 construct: vaccinia-related kinase 3 (VRK3), human; S108A made by site-directed mutagenesis in pGEX4T-3; pGEX4T-3 vector; also called S108A mutant VRK3; source: E. coli BL21 (DE3) pLysS, purified (glutathione-sepharose 4B)
T2 sequence (looked up): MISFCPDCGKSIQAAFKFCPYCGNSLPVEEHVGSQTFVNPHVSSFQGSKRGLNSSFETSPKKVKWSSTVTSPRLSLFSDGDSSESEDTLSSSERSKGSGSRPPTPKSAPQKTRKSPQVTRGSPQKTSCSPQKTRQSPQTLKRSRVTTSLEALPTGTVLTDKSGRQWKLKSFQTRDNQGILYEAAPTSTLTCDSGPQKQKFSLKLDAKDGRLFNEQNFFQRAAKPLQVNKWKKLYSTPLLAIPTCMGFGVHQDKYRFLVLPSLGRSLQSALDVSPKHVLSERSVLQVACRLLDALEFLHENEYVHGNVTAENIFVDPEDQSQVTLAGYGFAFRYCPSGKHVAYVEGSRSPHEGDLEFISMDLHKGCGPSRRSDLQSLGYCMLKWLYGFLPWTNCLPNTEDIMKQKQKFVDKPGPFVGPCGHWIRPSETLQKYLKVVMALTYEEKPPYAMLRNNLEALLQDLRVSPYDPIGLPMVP

GST-VRK3^S108E = target: T3, GST-VRK3^S108E (human, UniProt Q8IV63 1-474, S108E)
T3 construct: vaccinia-related kinase 3 (VRK3), human; S108E (phosphomimetic) made by site-directed mutagenesis in pGEX4T-3; pGEX4T-3 vector; also called S108E mutant VRK3; phosphomimetic mutant of VRK3; source: E. coli BL21 (DE3) pLysS, purified (glutathione-sepharose 4B)
T3 sequence (looked up): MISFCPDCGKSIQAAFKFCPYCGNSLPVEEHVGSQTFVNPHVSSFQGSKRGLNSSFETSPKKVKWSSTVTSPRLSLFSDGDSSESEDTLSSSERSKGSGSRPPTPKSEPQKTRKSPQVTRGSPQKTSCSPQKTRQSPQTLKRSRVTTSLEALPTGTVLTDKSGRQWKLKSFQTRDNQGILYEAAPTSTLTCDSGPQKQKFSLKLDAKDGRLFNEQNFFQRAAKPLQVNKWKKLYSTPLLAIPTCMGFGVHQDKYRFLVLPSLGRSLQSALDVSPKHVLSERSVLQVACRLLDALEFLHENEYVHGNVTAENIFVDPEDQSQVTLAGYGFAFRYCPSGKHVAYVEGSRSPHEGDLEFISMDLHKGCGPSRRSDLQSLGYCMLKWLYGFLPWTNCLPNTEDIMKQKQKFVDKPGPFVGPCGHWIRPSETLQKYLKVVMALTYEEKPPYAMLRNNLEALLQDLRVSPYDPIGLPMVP

Measured: binding result

B1: recombinant VHR (vaccinia H1-related phosphatase) (enzyme, human, UniProt P51452 1-185, looked up)
chain: MSGSFELSVQDLNDLLSDGSGCYSLPSQPCNEVTPRIYVGNASVAQDIPKLQKLGITHVLNAAEGRSFMHVNTNANFYKDSGITYLGIKANDTQEFNLSAYFERAADFIDQALAQKNGRVLVHCREGYSRSPTLVIAYLMMRQKMDVKSALSIVRQNREIGPNDGFLAQLCQLNDRLAKEGKLKP
notes: vaccinia H1-related (VHR) phosphatase; coding region amplified by RT-PCR from mRNA of human cell lines (SH-SY5Y, HEK293A, HeLa); source: E. coli BL21 (DE3) pLysS, purified
binds: all assays above
